Molecular target: T1, trypsin (Bos taurus, UniProt P00760)
T1 construct: gene PRSS1
T1 sequence (P00760 24-246): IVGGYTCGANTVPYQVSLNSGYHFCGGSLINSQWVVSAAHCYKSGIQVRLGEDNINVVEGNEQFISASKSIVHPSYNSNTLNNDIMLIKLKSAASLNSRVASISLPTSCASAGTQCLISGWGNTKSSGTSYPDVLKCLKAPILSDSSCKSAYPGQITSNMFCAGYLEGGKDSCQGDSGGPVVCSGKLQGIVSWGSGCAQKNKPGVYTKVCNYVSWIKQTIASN
Assay: Hydrolysis of fluorogenic protease substrate by purified enzyme (trypsin), fluorescence intensity
Format: biochemical
Details: for Average ratio w/ trypsin to w/o trypsin: average over emission 570-585 nm
Procedure: Enzymatic hydrolysis of the substrate from Example 1 was carried out in 50 mM carbonate buffer, pH 8.9 at room temperature. Fluorescence intensity of the solution prior to treatment with trypsin and after treatment with trypsin is shown in Table 1, for excitation wavelengths of 360 nm, 522 nm, 530 nm, and 553 nm, respectively. […] This is a characteristic of dye dimerization or stacking, as described above. […] Both the fluorescence and absorption results provided convincing evidence that ground-state interactions existed between dye molecules in the conjugate and became diminished after enzymatic cleavage.

[1] = Excitation 530 nm, emission 570 nm
[2] = Excitation 530 nm, emission 571 nm
[3] = Excitation 530 nm, emission 572 nm
[4] = Excitation 530 nm, emission 573 nm
[5] = Excitation 530 nm, emission 574 nm
[6] = Excitation 530 nm, emission 575 nm
[7] = Excitation 530 nm, emission 576 nm
[8] = Excitation 530 nm, emission 577 nm
[9] = Excitation 530 nm, emission 578 nm
[10] = Excitation 530 nm, emission 579 nm
[11] = Excitation 530 nm, emission 580 nm
[12] = Excitation 530 nm, emission 581 nm
[13] = Excitation 530 nm, emission 582 nm
[14] = Excitation 530 nm, emission 583 nm
[15] = Excitation 530 nm, emission 584 nm
[16] = Excitation 530 nm, emission 585 nm
[17] = Excitation 553 nm, emission 570 nm
[18] = Excitation 553 nm, emission 571 nm
[19] = Excitation 553 nm, emission 572 nm
[20] = Excitation 553 nm, emission 573 nm
[21] = Excitation 553 nm, emission 574 nm
[22] = Excitation 553 nm, emission 575 nm
[23] = Excitation 553 nm, emission 576 nm
[24] = Excitation 553 nm, emission 577 nm
[25] = Excitation 553 nm, emission 578 nm
[26] = Excitation 553 nm, emission 579 nm
[27] = Excitation 553 nm, emission 580 nm
[28] = Excitation 553 nm, emission 581 nm
[29] = Excitation 553 nm, emission 582 nm
[30] = Excitation 553 nm, emission 583 nm
[31] = Excitation 553 nm, emission 584 nm
[32] = Excitation 553 nm, emission 585 nm

For “TMR-Val-Pro-Arg-Gly-Lys-TMR (XPRGX; not fully specified; TMR dye at both ends) [T-VPRGK-T]”, the “Average ratio w/ trypsin to w/o trypsin” value (Excitation 530 nm) was 27, the “Fluorescence intensity w/ trypsin” value [1] was 46615 and the “Fluorescence intensity w/o trypsin” value [1] was 1687. The “ratio w/ trypsin to w/o trypsin” value [1] was 28, the “Fluorescence intensity w/ trypsin” value [2] was 48314 and the “Fluorescence intensity w/o trypsin” value [2] was 1718. For the same substance, the “ratio w/ trypsin to w/o trypsin” value [2] was 28, the “Fluorescence intensity w/ trypsin” value [3] was 49955 and the “Fluorescence intensity w/o trypsin” value [3] was 1819. The “ratio w/ trypsin to w/o trypsin” value [3] was 27, the “Fluorescence intensity w/ trypsin” value [4] was 50871 and the “Fluorescence intensity w/o trypsin” value [4] was 1844. For the same substance, the “ratio w/ trypsin to w/o trypsin” value [4] was 28, the “Fluorescence intensity w/ trypsin” value [5] was 52163 and the “Fluorescence intensity w/o trypsin” value [5] was 1904. For the same substance, the “ratio w/ trypsin to w/o trypsin” value [5] was 27, the “Fluorescence intensity w/ trypsin” value [6] was 52681 and the “Fluorescence intensity w/o trypsin” value [6] was 1895. The “ratio w/ trypsin to w/o trypsin” value [6] was 28, the “Fluorescence intensity w/ trypsin” value [7] was 52855 and the “Fluorescence intensity w/o trypsin” value [7] was 1968. The “ratio w/ trypsin to w/o trypsin” value [7] was 27, the “Fluorescence intensity w/ trypsin” value [8] was 53752 and the “Fluorescence intensity w/o trypsin” value [8] was 1939. The “ratio w/ trypsin to w/o trypsin” value [8] was 28, the “Fluorescence intensity w/ trypsin” value [9] was 53611 and the “Fluorescence intensity w/o trypsin” value [9] was 1970. The “ratio w/ trypsin to w/o trypsin” value [9] was 27, the “Fluorescence intensity w/ trypsin” value [10] was 53534 and the “Fluorescence intensity w/o trypsin” value [10] was 2026. The “ratio w/ trypsin to w/o trypsin” value [10] was 26, the “Fluorescence intensity w/ trypsin” value [11] was 53414 and the “Fluorescence intensity w/o trypsin” value [11] was 1973. The “ratio w/ trypsin to w/o trypsin” value [11] was 27, the “Fluorescence intensity w/ trypsin” value [12] was 53190 and the “Fluorescence intensity w/o trypsin” value [12] was 1985. The “ratio w/ trypsin to w/o trypsin” value [12] was 27, the “Fluorescence intensity w/ trypsin” value [13] was 52569 and the “Fluorescence intensity w/o trypsin” value [13] was 1948. For the same substance, the “ratio w/ trypsin to w/o trypsin” value [13] was 27, the “Fluorescence intensity w/ trypsin” value [14] was 51719 and the “Fluorescence intensity w/o trypsin” value [14] was 1926. The “ratio w/ trypsin to w/o trypsin” value [14] was 27, the “Fluorescence intensity w/ trypsin” value [15] was 50705 and the “Fluorescence intensity w/o trypsin” value [15] was 1905. The “ratio w/ trypsin to w/o trypsin” value [15] was 27, the “Fluorescence intensity w/ trypsin” value [16] was 49629 and the “Fluorescence intensity w/o trypsin” value [16] was 1820. For the same substance, the “ratio w/ trypsin to w/o trypsin” value [16] was 27, the “Average ratio w/ trypsin to w/o trypsin” value (Excitation 553 nm) was 25 and the “Fluorescence intensity w/ trypsin” value [17] was 82385. For the same substance, the “Fluorescence intensity w/o trypsin” value [17] was 3301, the “ratio w/ trypsin to w/o trypsin” value [17] was 25 and the “Fluorescence intensity w/ trypsin” value [18] was 85120. The “Fluorescence intensity w/o trypsin” value [18] was 3402, the “ratio w/ trypsin to w/o trypsin” value [18] was 25 and the “Fluorescence intensity w/ trypsin” value [19] was 87845. For the same substance, the “Fluorescence intensity w/o trypsin” value [19] was 3457, the “ratio w/ trypsin to w/o trypsin” value [19] was 25 and the “Fluorescence intensity w/ trypsin” value [20] was 89719. For the same substance, the “Fluorescence intensity w/o trypsin” value [20] was 3658, the “ratio w/ trypsin to w/o trypsin” value [20] was 25 and the “Fluorescence intensity w/ trypsin” value [21] was 91555. The “Fluorescence intensity w/o trypsin” value [21] was 3649, the “ratio w/ trypsin to w/o trypsin” value [21] was 25 and the “Fluorescence intensity w/ trypsin” value [22] was 93001. For the same substance, the “Fluorescence intensity w/o trypsin” value [22] was 3802, the “ratio w/ trypsin to w/o trypsin” value [22] was 24 and the “Fluorescence intensity w/ trypsin” value [23] was 94046. The “Fluorescence intensity w/o trypsin” value [23] was 3827, the “ratio w/ trypsin to w/o trypsin” value [23] was 25 and the “Fluorescence intensity w/ trypsin” value [24] was 94816. The “Fluorescence intensity w/o trypsin” value [24] was 3816, the “ratio w/ trypsin to w/o trypsin” value [24] was 25 and the “Fluorescence intensity w/ trypsin” value [25] was 94516. For the same substance, the “Fluorescence intensity w/o trypsin” value [25] was 3806, the “ratio w/ trypsin to w/o trypsin” value [25] was 25 and the “Fluorescence intensity w/ trypsin” value [26] was 94662. For the same substance, the “Fluorescence intensity w/o trypsin” value [26] was 3962, the “ratio w/ trypsin to w/o trypsin” value [26] was 24 and the “Fluorescence intensity w/ trypsin” value [27] was 93715. For the same substance, the “Fluorescence intensity w/o trypsin” value [27] was 3695, the “ratio w/ trypsin to w/o trypsin” value [27] was 25 and the “Fluorescence intensity w/ trypsin” value [28] was 93189. For the same substance, the “Fluorescence intensity w/o trypsin” value [28] was 3825, the “ratio w/ trypsin to w/o trypsin” value [28] was 24 and the “Fluorescence intensity w/ trypsin” value [29] was 92281. For the same substance, the “Fluorescence intensity w/o trypsin” value [29] was 3736, the “ratio w/ trypsin to w/o trypsin” value [29] was 25 and the “Fluorescence intensity w/ trypsin” value [30] was 91125. The “Fluorescence intensity w/o trypsin” value [30] was 3724, the “ratio w/ trypsin to w/o trypsin” value [30] was 24 and the “Fluorescence intensity w/ trypsin” value [31] was 89415. For the same substance, the “Fluorescence intensity w/o trypsin” value [31] was 3593, the “ratio w/ trypsin to w/o trypsin” value [31] was 25 and the “Fluorescence intensity w/ trypsin” value [32] was 87910. The “Fluorescence intensity w/o trypsin” value [32] was 3449, the “ratio w/ trypsin to w/o trypsin” value [32] was 25 and the “fluorescence intensity of the cleaved substrate solution relative to the intact substrate solution (maximum)” value (excitation 360-553 nm, emission wavelengths from 570 to 585 nm) was no more than 29 times.

Source: US7256012B2, “Fluorogenic protease substrates based on dye-dimerization” (3M Innovative Properties Company, priority 1997, dated 2007)
